Values of other authors in PMC7139808.

Assays:
[1] = target: hemoglobin (Homo sapiens) (UniProt P69905)
[2] = target: hemoglobin (Mus musculus) (UniProt P01942)
UniProt P01942, sequence (P01942 2-142, chain 1 of 2): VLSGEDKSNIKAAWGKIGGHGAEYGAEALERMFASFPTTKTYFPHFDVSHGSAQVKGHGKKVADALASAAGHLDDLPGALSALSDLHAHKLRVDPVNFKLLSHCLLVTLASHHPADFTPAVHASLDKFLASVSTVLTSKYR
UniProt P01942, sequence (P02088 2-147, chain 2 of 2, further chain): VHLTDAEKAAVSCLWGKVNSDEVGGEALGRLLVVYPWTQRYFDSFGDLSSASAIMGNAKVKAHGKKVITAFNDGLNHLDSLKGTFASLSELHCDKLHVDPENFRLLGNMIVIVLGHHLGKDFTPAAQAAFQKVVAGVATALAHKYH

UniProt P69905, sequence (P69905 2-142, chain 1 of 2): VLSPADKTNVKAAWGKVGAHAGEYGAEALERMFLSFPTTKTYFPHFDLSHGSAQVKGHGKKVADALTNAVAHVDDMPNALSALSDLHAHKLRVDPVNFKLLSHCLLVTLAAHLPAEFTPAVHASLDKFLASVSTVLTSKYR
UniProt P69905, sequence (P68871 2-147, chain 2 of 2, further chain): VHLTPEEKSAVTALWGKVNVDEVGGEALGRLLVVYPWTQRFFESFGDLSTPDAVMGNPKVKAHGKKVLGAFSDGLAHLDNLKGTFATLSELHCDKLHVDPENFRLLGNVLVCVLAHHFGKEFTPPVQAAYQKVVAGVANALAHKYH

For IsdB (from UniProt A7X146), the Kd [1] is given as 55 nM and the Kd [2] is given as 980 nM.
